Results published in the supplement of paper PMC9732359.
± gives the uncertainty stated by the source.

Assay: protein stability index of a GFP-peptide fusion (yeast GPS) (PSI 1-4); higher = more stable; sorted into four equal gates, so the index is relative within each strain
How it was run: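 Plasmids in a pooled yeast library fused tiled 17-residue yeast protein peptides downstream of GFP and also expressed Cherry. Mid-log cultures grown without leucine were sorted into four equal gates by GFP/Cherry fluorescence ratio. Each gate's plasmids were PCR-amplified and Illumina-sequenced, and reads were matched to strains by barcodes. The protein stability index is derived by multiplying each gate's read frequency by its gate number and summing the results.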

Sequence	protein stability index (doa10∆)	protein stability index (pdr5∆)	protein stability index (san1∆)	protein stability index (ubr1∆)
SINISCVQLIKCLVEKS [SWI1]	1.78 ± 0.067	2.41 ± 0.055	2.27 ± 0.1	1.81 ± 0.045
SIRLKVPPTIAQFQYTL [RPL8A]	2.09 ± 0.047	2.36 ± 0.04	1.93 ± 0.064	2.19 ± 0.035
SIRRQDYINELSNSNRF [REC8]	2.82 ± 0.17	3.21 ± 0.12	3.4 ± 0.092	3.2 ± 0.12
SIYKYIHLNELLTNDES [SNF12]	2.54 ± 0.063	2.71 ± 0.053	2.19 ± 0.071	2.63 ± 0.084
SKDELREKLAEVYKAEK [RPS24A]	3.51 ± 0.16	3.48 ± 0.15	3.59 ± 0.08	3.56 ± 0.16
SKEDTLRLCLDIVPYFL [RPN1]	1.92 ± 0.05	1.92 ± 0.033	1.58 ± 0.081	2.12 ± 0.057
SKEGQYKAKIKELENNL [YIL149C/MLP2]	2.75 ± 0.12	1.49 ± 0.053	2.18 ± 0.13	3.03 ± 0.069
SKFNNADDVFTGTGLQD [RPC31]	3.35 ± 0.1	3.38 ± 0.091	3.12 ± 0.056	3.17 ± 0.066
SKGYVKTQFSWQYYYYT [RPS10A]	2.81 ± 0.077	2.54 ± 0.06	2.76 ± 0.05	2.92 ± 0.056
SKIFRFQNSKSASLFKQ [RPL24A]	2.63 ± 0.097	3.04 ± 0.085	2.54 ± 0.096	2.1 ± 0.073
SKIIVFPRDGKAPEAEQ [RPL13B]	3.15 ± 0.085	3.2 ± 0.08	3.18 ± 0.058	3.33 ± 0.052
SKKDPRILKNVSPNDNN [YMR153W/NUP53]	2.65 ± 0.069	2.36 ± 0.045	2.42 ± 0.054	2.47 ± 0.034
SKLDYIFKDKEKLVSDL [SMC1]	2.89 ± 0.15	3.24 ± 0.085	3.27 ± 0.2	3.37 ± 0.083
SKLKEEEAALLIKERQE [ESC2]	2.85 ± 0.074	2.88 ± 0.065	2.83 ± 0.043	2.9 ± 0.054
SKLKLKNLLRKNLSIDE [ECM29]	1.71 ± 0.086	1.47 ± 0.054	1.46 ± 0.098	1.76 ± 0.062
SKLMPVLKSSVYEYVIA [RPC82]	1.42 ± 0.061	1.57 ± 0.059	1.25 ± 0.1	1.46 ± 0.056
SKLRNNIRSQLLSENRS [SRP54]	2.8 ± 0.069	2.58 ± 0.094	2.67 ± 0.06	2.85 ± 0.049
SKNELKKAFTSYDRTLL [RPS16A]	2.76 ± 0.067	3.14 ± 0.057	3.12 ± 0.07	2.91 ± 0.077
SKNMSKSPSLTAQKYPI [YMR153W/NUP53]	2.46 ± 0.051	2.46 ± 0.044	2.48 ± 0.055	2.51 ± 0.043
SKQNGSKFHFSWNESED [PRP28]	2.73 ± 0.061	2.94 ± 0.064	2.72 ± 0.072	2.79 ± 0.046
SKQTPQPKAPRAPKVIH [ISW2]	2.91 ± 0.05	3.14 ± 0.054	2.93 ± 0.041	3.14 ± 0.047
SKRRITEELSITGEKLD [SMC1]	2.17 ± 0.08	2.22 ± 0.072	2.18 ± 0.1	2.01 ± 0.078
SKSKQSFTQGELNDLKW [YMR129W/POM152]	3.02 ± 0.13	2.81 ± 0.13	3.08 ± 0.11	2.75 ± 0.092
SKSLQESGDTQEEDEEE [RPC82]	3.5 ± 0.19	3.48 ± 0.15	3.29 ± 0.08	3.48 ± 0.12
SKTSENKVSNTVSPTQD [SIR2]	2.98 ± 0.14	3.12 ± 0.066	2.83 ± 0.093	3.15 ± 0.12
SKVGSADTGRDDTKETV [RPN11]	3.14 ± 0.13	3.36 ± 0.089	3.59 ± 0.068	3.04 ± 0.12
